Literature values as cited in PMC12461627, “Locking CBL TKBD in its native conformation presents a novel therapeutic opportunity in mutant CBL-dependent leukemia” (Molecular Therapy, 2025).

Molecular target: pSYK peptide (Homo sapiens) (UniProt P43405)
Details: cited from earlier work

CBL TKBD (from UniProt P22681)
Kd: 1480 nM
